In one data set the test system is MicD-F. Put plainly: Reaction of protein substrates (mCherry and Rop variants) with MicD-F, LC-MS deconvoluted mass. Particulars: for cyclodehydration of Rop variants to thiazoline / cyclodehydration of mCherry variants to thiazoline (loss of water): 50 mol % MicD-F; for cyclodehydration of mCherry variants to thiazoline (loss of water): 24 hours. The data set is classed as biochemical, Microcystis aeruginosa. Here is the method: Reactions of proteins with MicD-F were performed in the manner described above with minor modifications. Namely, the substrate stock was a 1 mM solution of protein in 20 mM HEPES, 150 mM NaCl, 1 mM TCEP, pH 7.4.
(§1) Unprocessed reaction mixture (1 μL) was used for LC-MS analysis which was performed on an Agilent 1290 Infinity II HPLC connected to an Agilent 6530B QTOF AJS-ESI. The mobile phase for LC-MS was water and acetonitrile with 0.1% (v/v) formic acid and a flow rate of 0.4 mL/min. Each sample was injected onto a Poroshell 300SB-C8 column (2.1×75 mm, 5-Micron, room temperature, Agilent) using a linear gradient from 5 to 55% acetonitrile over 8 minutes after an initial hold at 5% acetonitrile for 2 minutes (0.4 mL/min). The following parameters were used during acquisition: Fragmentor voltage 225 V, gas temperature 300° C., gas flow 10 L/min, sheath gas temperature 350° C., sheath gas flow 11 L/min, nebulizer pressure 35 psi, skimmer voltage 65 V, Vcap 5000 V, 1 spectra/s. Intact protein masses were obtained via deconvolution using the Maximum Entropy algorithm in Mass Hunter Bioconfirm (V10, Agilent).

A further data set has as its system MicD-F and ArtGox. As to the kind of experiment: Reaction of protein substrates with MicD-F and ArtGox in tandem, LC-MS deconvoluted mass. The note with it: 50 mol % MicD-F, 80 mol % ArtGox, 24 hours, pH 9.0, 37° C. The class given is biochemical, Microcystis aeruginosa; Arthrospira platensis. How it is done:
Reactions of proteins with MicD-F and ArtGox were performed in the manner described above with minor modifications. The substrate stock was a 1 mM solution of protein in 20 mM HEPES, 150 mM NaCl, 1 mM TCEP, pH 7.4. Reactions were carried out at either 25° C. or 37° C. as indicated.
as §1

Data set [1] can be described thus: Circular dichroism of Rop variants (wavelength scans and temperature melts). The data set is classed as physicochemical. Particulars: CD at 222 nm; for TM (melting temperature): 20 μM, 10 mM phosphate, 100 mM NaCl, 150 μM TCEP, pH 7.0. Here is the method: RopN, RopM, and RopC were exchanged into CD buffer (10 mM phosphate, 100 mM NaCl, 150 μM TCEP, pH 7.0) using Amicon Ultra-0.5 mL centrifugal filters (MilliporeSigma, Burlington, MA) with a 3 kDa molecular weight cut-off according to the manufacturer's instructions and then diluted with the same buffer to a concentration of 20 μM. For CD analysis each Rop variant was transferred to a 1 mm quartz cuvette. Wavelength and temperature dependent CD spectra were collected with an AVIV Biomedical, Inc. (Lakewood, NJ) Circular Dichroism Spectrometer Model 410. For wavelength-dependent spectra, initial scans were performed from 200 to 300 nm at 25° C. in 2 nm increments with an averaging time of 5 seconds. For temperature melt experiments, the signal was monitored at 222 nm with an averaging time of 5 seconds. Temperature melts were performed from 5 to 90° C. in 1° C. increments with equilibration for 2 minutes before each measurement. Following the temperature melt the sample was returned to 25° C. and the wavelength-dependent CD spectra was measured once more to assess the reversibility of the melt. Raw data (mdeg) were converted to molar ellipticity ([Θ], in deg*cm^2*dmol^−1) by
where M is the mean residual weight (116.00 g/mol for RopN, RopM, and RopC), L is the pathlength of the cuvette in centimeters, and C is the concentration of the sample in g/L.7 The melting temperature was determined by fitting the molar ellipticity as a function of temperature to a Boltzmann sigmoidal curve using GraphPad Prism (Version 7.04).
CD analysis of RopC-U and RopC-Z was performed as described for RopN, RopM, and RopC with the following modifications. Temperature melts were performed from 5 to 90° C. in 2.5° C. increments. Before measuring the temperature melt for RopC-Z, the protein was refolded by performing an initial melt from 5 to 90° C. in 2.5° C. increments as described.
For orientation: Circular dichroism is the unequal absorption of left and right circularly polarised light.

Data set [2] in a line: Analytical size-exclusion chromatography of Rop variants. The class given is physicochemical. Particulars: 50 μM. How it is done: To assess the homogeneity of isolated Rop variants, a solution of each protein was prepared (250 μg at 50 μM) in running buffer (10 mM phosphate, 100 mM NaCl, 150 µM TCEP, pH 7.0). A Superdex® 75 Increase 10/300 GL column (stored and operated at 4° C.) was washed with 2 column volumes (CV) of degassed and sterile filtered MilliQ water. The column was then equilibrated in running buffer for 2 CV. Each sample (500 μL) was applied to a 500 μL sample loop. The sample loop was washed with 2 mL of running buffer at 0.8 mL/min to load the sample onto the column. The sample was then eluted from the column by flowing running buffer at 0.8 mL/min for 1.30 CV. To assess column performance, a gel filtration standard (Bio-Rad Laboratories, Hercules, CA, catalog number 151-1901) containing 670 kDa, 158 kDa, 44 kDa, 17 kDa, and 1.35 kDa standards was used according to the manufacturer's instructions.
On the technique in general: In gel filtration, larger molecules generally elute earlier.

Data set [3] in a line: Temperature stability of MicD-F. The data set is classed as physicochemical.

We go through six molecules from patent publication US20250179550A1, “Methods to imbue polymeric materials with new structures and functions” (The Regents of the University of California, priority 2022, published 2025).

B1: RopC: Rop variant with loop sequence GGGGMCAYDG, SEQ ID NO: 3 (protein, listed as Escherichia coli)
chain: MDYKDDDDKMTKQEKTALNMARFIRSQTLTLLEKLNELGGGGMCAYDGDEQADICESLHDHADELYRSCLARFGDDGENLHHHHHH
Consider B1, for which the “cyclodehydration of Rop variants to thiazoline” value (from here on “cyclodehydration of Rop variants”) in the data set with MicD-F (pH 9.0, 37° C., 16 h) is on record as “clean conversion”. For the same molecule, the “conversion of RopC into RopC-U” value in the data set on MicD-F (up to 50 μM MicD-F, 16 h, 25° C.) is “minimal”. Besides, the “conversion to the thiazole-modified protein” value in the data set on MicD-F and ArtGox is reported as “complete conversion”. In addition, in data set [1], the “unfolding behaviour in temperature melt” value was “melted cooperatively and reversibly”; the “TM (melting temperature)” value was 28 °C. Moreover, in data set [2], the “migration / homogeneity on SEC” value is listed as “discrete dimers”.

B2: RopM: Rop variant with loop sequence GGMCAYDGGG, SEQ ID NO: 2 (protein, listed as Escherichia coli)
chain: MDYKDDDDKMTKQEKTALNMARFIRSQTLTLLEKLNELGGMCAYDGGGDEQADICESLHDHADELYRSCLARFGDDGENLHHHHHH
For the molecule B2, the “cyclodehydration of Rop variants” value in the data set on MicD-F (pH 9.0, 37° C., 16 h) is on record as “reacted partially”. Moreover, in data set [1], the “unfolding behaviour in temperature melt” value is “melted cooperatively and reversibly”; the “TM (melting temperature)” value was determined as 32 °C. For the same molecule, the “migration / homogeneity on SEC” value in data set [2] is “discrete dimers”.

B3: RopN: Rop variant with loop sequence MCAYDGGGGG, SEQ ID NO: 1 (protein, listed as Escherichia coli)
chain: MDYKDDDDKMTKQEKTALNMARFIRSQTLTLLEKLNELMCAYDGGGGGDEQADICESLHDHADELYRSCLARFGDDGENLHHHHHH
For the molecule B3, the “cyclodehydration of Rop variants” value with MicD-F (pH 9.0, 37° C., 16 h) is listed as “unreactive”. In data set [1], the “unfolding behaviour in temperature melt” value was “melted non-cooperatively” and the “TM (melting temperature)” value worked out at 43 °C. In data set [2], the “migration / homogeneity on SEC” value is “heterogeneous mixture”.

B4: MicD-F: constitutively activated cyclodehydratase, leader peptide fused to N-terminus of MicD, SEQ ID NO: 7 (protein, listed as Microcystis aeruginosa)
chain: MSHHHHHHDYDENLYFQGSRLTAGQLSSQLAELSEEALGDAGAGAGAGAGAKLMQSTPLLQIQPHFHVEVIEPKQVYLLGEQANYALTGQLYCQILPLLDGQHSREQIVEKLDGEVPSEYIDYVLDRLAEKGYLTEAAPELSSEVAAFWSELGIAPPVAAEALRQSVTLTPVGNISEVTVAALTTALRDIGISVQTPTEAGSPTALNVVLTDDYLQPELAKINKQALESQQTWLLVKPVGSVLWLGPVFVPGKTGCWDCLAHRLRGNREVEASVLQQKQAQQQRNGQSGSVIGCLPTARATLPSTLQTGLQFAATEIAKWIVKHHVKATAPGTVFFPTLDGKIITFNHTVIDLKSHVLVRRSQCPSCGDRQILHRQGFEPVKLVSRRKHFTHDGGHRAFTPEQTVQKYQHLVSPITGVVTELVRLTDPANPLVHTYKAGHAFGSATTLRGLRNTLKYKSSGKGKTDIQSRASGLCEAIERYSGIFQGDEPRKRATLAELGDLALHPESLLYFSNTQYANREELNAQGSAAAYRWIPNRFDVSQAIDWTPVWSLTEQKHKYVPTAFCYYGYPLPEEQRFCKADSNGNAAGNTLEEAILQGFLELVERDSIAMWWYNRIRRPAVDLSTFDEPYFVDLQQFYQQQNRELWVLDVTADLGIPAFAGFSRRTVGTSERISIGFGAHLDPTIAILRALTEVSQVGLELDKIPDDKLDGESKDWMLNVTVENHPWLAPDPSVPMKTASDYPKRWSDDIHTDVMNCVKTAQTAGLEVMVLDQTRPDIGLNVVKVIIPGMRTFWTRFGQGRLYDIPVKLGWLDAPLAEEELNQTNIPF
In the case of B4, the “highest temperature at which MicD-F remained stable” value in data set [3] came out at 42 °C.

B5: mCherry192+ (protein, listed as Discosoma sp.)
chain: MDYKDDDDKMVSKGEEDNMAIIKEFMRFKVHMEGSVNGHEFEIEGEGEGRPYEGTQTAKLKVTKGGPLPFAWDILSPQFMYGSKAYVKHPADIPDYLKLSFPEGFKWERVMNFEDGGVVTVTQDSSLQDGEFIYKVKLRGTNFPSDGPVMQKKTMGWEASSERMYPEDGALKGEIKQRLKLKDGGHYDAEVKTTYKAKKPVMCAYDGQLPGAYNVNIKLDITSHNEDYTIVEQYERAEGRHSTGGMDELYKHHHHHH
B5: the “cyclodehydration of mCherry variants to thiazoline (loss of water)” value is recorded as “no evidence of cyclodehydration” in the data set on MicD-F (pH 9.0, 37° C.) and “no evidence of cyclodehydration” in the data set on MicD-F (pH 9.0, 42° C.).

B6: mCherry174+ (protein, listed as Discosoma sp.)
chain: MDYKDDDDKMVSKGEEDNMAIIKEFMRFKVHMEGSVNGHEFEIEGEGEGRPYEGTQTAKLKVTKGGPLPFAWDILSPQFMYGSKAYVKHPADIPDYLKLSFPEGFKWERVMNFEDGGVVTVTQDSSLQDGEFIYKVKLRGTNFPSDGPVMQKKTMGWEASSERMYPEDGALKGEIKQRLKLKDMCAYDGGGHYDAEVKTTYKAKKPVQLPGAYNVNIKLDITSHNEDYTIVEQYERAEGRHSTGGMDELYKHHHHHH
For B6, the “cyclodehydration of mCherry variants to thiazoline (loss of water)” value in the data set on MicD-F (pH 9.0, 37° C.) is “no evidence of cyclodehydration”; in the data set on MicD-F (pH 9.0, 42° C.), “no evidence of cyclodehydration”.
